± gives the standard deviation of the averaged measurements.
system: ATP; assay: switch fluorescence ratio, 500 uM ATP over buffer (Cy3 cluster intensity, sum of 5 cycles each) (fold (ratio)); higher = stronger signal-on switching upon ATP binding; sequences stand for … in TCGTCGGCAGCGTCAGATGTGTATAAGAGACAGTTTTTTTTTTTTTTTTTTTTTTTTT…TC; details: aptamer strand: ATP DNA aptamer (quencher-CACCTGGGGGAGTATTGCGGAGGAAGG + anchor), 100 nM annealed; ATP concentration: 500 uM
Procedure, shortened: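 Clusters carrying Cy3-labelled switching strands on a modified Illumina MiSeq flow-cell were annealed to 100 nM quencher-labelled ATP aptamer and imaged in selection buffer. They were imaged again after 15 min with 500 uM ATP at 22 °C, over five buffer/ATP cycles with NaOH stripping and re-annealing in between. For each cluster, the fluorescence ratio is the summed Cy3 intensity of the target cycles divided by that of the buffer cycles, averaged per switch-domain sequence. Clusters outside 100-1000 RFU were left out.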
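Note: ATP exposure 15 min at 22 °C before imaging.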

CACCGGAAAA and GGGCTAGGGA are within error of each other in switch fluorescence ratio: 1.09 ± 0.094 for the first, 0.972 ± 0.041 for the second.

ATCAGGGCGG and GTAGGTTACT are within error of each other in switch fluorescence ratio: 0.9887 ± 0.0089 for the first, 1.01 ± 0.019 for the second.

Compared with GAGCTAACGG, AGGTAACGGG is lower in switch fluorescence ratio: 1.011 ± 0.0073 for the first, 0.987 ± 0.0099 for the second.

TAAATTAGTT and TTTTGCAGGT are within error of each other in switch fluorescence ratio: 1.01 ± 0.017 for the first, 1.03 ± 0.026 for the second.

GTTATATAAG and TCGAAAAGGG are within error of each other in switch fluorescence ratio: 0.984 ± 0.011 for the first, 0.992 ± 0.015 for the second.

CGCCTGGCGT and AATGATGCTT are within error of each other in switch fluorescence ratio: 0.9568 ± 0.0077 for the first, 1 ± 0.051 for the second.

AGGGAGGACT and AATGGGGTCT are within error of each other in switch fluorescence ratio: 1.022 ± 0.009 for the first, 1.01 ± 0.047 for the second.

TAGCTGGGGC and ACACGGGGGA are within error of each other in switch fluorescence ratio: 1.02 ± 0.037 for the first, 1.01 ± 0.024 for the second.

GAAAAAAAGG and TTTGAGCTGG are within error of each other in switch fluorescence ratio: 0.982 ± 0.051 for the first, 0.996 ± 0.035 for the second.

Going from GGCCAGGAGA to ACGGTCGGGC, the switch fluorescence ratio falls from 1.04 ± 0.021 to 0.9775 ± 0.00067.

First: TAAGGGGAGG
Second: AACGGATTCT
The switch fluorescence ratio of the first is lower: 1 ± 0.017 for the first, 1.04 ± 0.016 for the second.

TTATTCGGTG and TCCATATGCT are within error of each other in switch fluorescence ratio: 0.98 ± 0.021 for the first, 0.9941 ± 0.0093 for the second.

ATTTCAGGGT and CTCGTTGAAG are within error of each other in switch fluorescence ratio: 1 ± 0.015 for the first, 0.979 ± 0.032 for the second.

Going from AGGAGATTTT to AGTTCGTAAA, the switch fluorescence ratio rises from 0.957 ± 0.032 to 1.02 ± 0.029.

TGCAAAAAAT and ACTAGTGCGG are within error of each other in switch fluorescence ratio: 1.02 ± 0.011 for the first, 1.01 ± 0.028 for the second.

Going from ATGGGATTAA to GGTTTTTTAA, the switch fluorescence ratio falls from 1.032 ± 0.0025 to 0.995 ± 0.011.

CAGGTTTTGG and CTTTATTCGT are within error of each other in switch fluorescence ratio: 0.964 ± 0.034 for the first, 0.9896 ± 0.0096 for the second.

AAGGGGCCCC and TTTGCTTGGG are within error of each other in switch fluorescence ratio: 1.31 ± 0.49 for the first, 1.02 ± 0.033 for the second.

TTTTTCGTTA and GATGTAAAGC are within error of each other in switch fluorescence ratio: 1.1 ± 0.083 for the first, 1.02 ± 0.06 for the second.

AGTGCTTACG and GGTACGTTTT are within error of each other in switch fluorescence ratio: 0.995 ± 0.025 for the first, 1.03 ± 0.024 for the second.

TGTGGGATAG and GGGCTTGGCT are within error of each other in switch fluorescence ratio: 0.979 ± 0.029 for the first, 0.9851 ± 0.0065 for the second.

TGTCGTCTTC and ATAATTTCGG are within error of each other in switch fluorescence ratio: 0.99 ± 0.016 for the first, 1.01 ± 0.026 for the second.

AGTTGAGAGA and CTGGCCAGTT are within error of each other in switch fluorescence ratio: 1.01 ± 0.018 for the first, 1 ± 0.013 for the second.

TTTTTTTAAT and CGTTGTGTAG are within error of each other in switch fluorescence ratio: 1 ± 0.028 for the first, 1.02 ± 0.013 for the second.

Going from GACGTGTCAA to GATTAAATGT, the switch fluorescence ratio falls from 1.03 ± 0.019 to 0.992 ± 0.014.

CGCTGTCGGA and AGACTCCAAG are within error of each other in switch fluorescence ratio: 1.014 ± 0.0078 for the first, 1 ± 0.059 for the second.

CTTTTAGTGT and ATGGGGATTT are within error of each other in switch fluorescence ratio: 0.963 ± 0.032 for the first, 0.991 ± 0.01 for the second.

TTTCATGGTA and TGGGTGGTTG are within error of each other in switch fluorescence ratio: 0.998 ± 0.0099 for the first, 1.02 ± 0.035 for the second.

GCCGTAAGGA and GGTAGTGGGC are within error of each other in switch fluorescence ratio: 1.06 ± 0.033 for the first, 1.02 ± 0.034 for the second.

GCTTTCATTT and GATTGGACTA are within error of each other in switch fluorescence ratio: 1.013 ± 0.0049 for the first, 1 ± 0.035 for the second.

First: TAGGCGGATA
Second: TGCAGGGTGC
The switch fluorescence ratio of the first is lower: 1.008 ± 0.0023 for the first, 1.04 ± 0.016 for the second.

TGTTTTCGGT and GTGTTGGTTG are within error of each other in switch fluorescence ratio: 0.9899 ± 0.0097 for the first, 0.982 ± 0.038 for the second.

Compared with TGATCAAGTG, ATTTTCGCAT is higher in switch fluorescence ratio: 0.99 ± 0.049 for the first, 1.19 ± 0.051 for the second.

Compared with CCGCCGGGGT, TTATTCGAGA is lower in switch fluorescence ratio: 1.91 ± 0.31 for the first, 1.02 ± 0.034 for the second.

Going from TCGATCCTGA to TTTAAATCCT, the switch fluorescence ratio rises from 0.998 ± 0.032 to 1.09 ± 0.013.

CTCGTGGCGG and TTATAGCCTT are within error of each other in switch fluorescence ratio: 1.02 ± 0.076 for the first, 1.04 ± 0.046 for the second.

CGATGAGAGT and CTCGTTGTGG are within error of each other in switch fluorescence ratio: 1.03 ± 0.064 for the first, 1.25 ± 0.37 for the second.

TGTTATTTTT and TTAGCGCTGG are within error of each other in switch fluorescence ratio: 1 ± 0.041 for the first, 1.01 ± 0.015 for the second.

First: TTTTTTACTG
Second: ATTTACAGGT
The switch fluorescence ratio of the first is lower: 0.991 ± 0.026 for the first, 1.033 ± 0.0098 for the second.

ATAAGATTGC and CGGTTATTTA are within error of each other in switch fluorescence ratio: 0.991 ± 0.042 for the first, 1.04 ± 0.011 for the second.

Compared with TCCGGGTATT, TGCAATAGGG is higher in switch fluorescence ratio: 1.078 ± 0.0025 for the first, 1.35 ± 0.12 for the second.

TTAAACGTAG and GGGGAAAAGG are the same in switch fluorescence ratio: 1 ± 0.045 for the first, 1 ± 0.017 for the second.

First: TTGGGTCTGG
Second: AGCAACCGGT
The switch fluorescence ratio of the first is lower: 0.965 ± 0.02 for the first, 1.1 ± 0.016 for the second.

GATTTAATTG and GGGCCCGGGT are within error of each other in switch fluorescence ratio: 1.03 ± 0.09 for the first, 0.994 ± 0.037 for the second.

TCACGTTGGG and AGCGGTGGTT are within error of each other in switch fluorescence ratio: 0.9989 ± 0.0094 for the first, 1.02 ± 0.012 for the second.

First: AAAAACAACT
Second: AGAAGTAAGA
The switch fluorescence ratio of the first is higher: 1.024 ± 0.0076 for the first, 0.998 ± 0.0065 for the second.

Going from AGGTCAGCCT to ACGTCTATGT, the switch fluorescence ratio falls from 1.03 ± 0.029 to 0.992 ± 0.0074.

Compared with TACTAGTACA, ACTGCTGGGA is lower in switch fluorescence ratio: 1.09 ± 0.018 for the first, 1.01 ± 0.015 for the second.

TTACCTTTCT and GGAGGGGCAC are within error of each other in switch fluorescence ratio: 1.64 ± 0.64 for the first, 0.979 ± 0.036 for the second.

First: GGGTACGCAC
Second: CAAGGTACGA
The switch fluorescence ratio of the first is higher: 1.82 ± 0.034 for the first, 1.02 ± 0.043 for the second.

Source: the supplement of paper PMC10126150
